In patent publication US10280205B2, “Method for treating cancer with an activated T lymphocyte that selectively recognizes a cancer cell consisting of specific peptide” (immatics biotechnologies GmbH, priority 2015, dated 2019):

target: HLA-A*02:01 (Homo sapiens, UniProt P04439, D140Y/D185E/D98H/E176V/E277Q/G131W/G231S/I119V/I121R/I166T/I218V/L300P/L318F/N151K/N90K/P208A/P217A/Q86G/Q94H/R138H/R169H/T345S); experiment: MHC binding assay: UV-ligand exchange with beta2m ELISA (exchange yield); details: binding to HLA-A*02:01, β2m ELISA
Method in brief: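 Exchange yield reflects how much β2m remains bound, measured by ELISA: streptavidin capture of 100-fold diluted monomers, HRP anti-β2m at 37° C. for 1 h, TMB read at 450 nm. Monomers come from UV cleavage of a conditional HLA-A*02:01 ligand in the presence of the candidate peptide.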

Substance	Peptide exchange (MHC class I binding score, peptide exchange yield)
99 (ALVSKGLATV; listed as Homo sapiens) [compound 99]	“++” (≥20% = ++)
95 (SVIPQIQKV; listed as Homo sapiens) [compound 95]	“+++” (≥50 = +++)
17 (GLLPGDRLVSV; listed as Homo sapiens) [compound 17]	“+++” (≥50 = +++)
295 (VLDRESPNV; listed as Homo sapiens) [compound 295]	“+++” (≥50 = +++)
88 (FLLVGDLMAV; listed as Homo sapiens) [compound 88]	“+++” (≥50 = +++)
96 (YIFTDNPAAV; listed as Homo sapiens) [compound 96]	“+++” (≥50 = +++)
47 (ILLSVPLLVV; listed as Homo sapiens) [compound 47]	“++” (≥20% = ++)
153 (FLIANVLYL; listed as Homo sapiens) [compound 153]	“+” (≥10% = +)
256 (FLPPEHTIVYI; listed as Homo sapiens) [compound 256]	“+++” (≥50 = +++)
273 (NLFQSVREV; listed as Homo sapiens) [compound 273]	“++” (≥20% = ++)
258 (ELAERVPAI; listed as Homo sapiens) [compound 258]	“++” (≥20% = ++)
261 (YVLEFLEEI; listed as Homo sapiens) [compound 261]	“++” (≥20% = ++)
157 (SLNDEVPEV; listed as Homo sapiens) [compound 157]	“++” (≥20% = ++)
212 (ALWDQDNLSV; listed as Homo sapiens) [compound 212]	“++” (≥20% = ++)
146 (SLATAGDGLIEL; listed as Homo sapiens) [compound 146]	“++” (≥20% = ++)
15 (VLLTFKIFL; listed as Homo sapiens) [compound 15]	“++” (≥20% = ++)

Substance	Peptide exchange (MHC class I binding score, peptide exchange yield)
218 (SALEELVNV; listed as Homo sapiens) [compound 218]	“++” (≥20% = ++)
123 (NLWDLTDASVV; listed as Homo sapiens) [compound 123]	“+++” (≥50 = +++)
179 (KVLNELYTV; listed as Homo sapiens) [compound 179]	“+++” (≥50 = +++)
100 (YLLSTNAQL; listed as Homo sapiens) [compound 100]	“++++” (≥75% = ++++)
208 (KISPVTFSV; listed as Homo sapiens) [compound 208]	“+++” (≥50 = +++)
188 (GLFPVTPEAV; listed as Homo sapiens) [compound 188]	“+++” (≥50 = +++)
46 (ILTEENIHL; listed as Homo sapiens) [compound 46]	“+++” (≥50 = +++)
140 (YMDAPKAAL; listed as Homo sapiens) [compound 140]	“++” (≥20% = ++)
136 (YLADPSNLFVV; listed as Homo sapiens) [compound 136]	“+++” (≥50 = +++)
129 (GLLDGGVDILL; listed as Homo sapiens) [compound 129]	“+++” (≥50 = +++)
5 (HLTEVYPEL; listed as Homo sapiens) [compound 5]	“+++” (≥50 = +++)
198 (KTINKVPTV; listed as Homo sapiens) [compound 198]	“+++” (≥50 = +++)
92 (YLIPFTGIVGL; listed as Homo sapiens) [compound 92]	“++” (≥20% = ++)
14 (AAYGGLNEKSFV; listed as Homo sapiens) [compound 14]	“+++” (≥50 = +++)
57 (TLAELQPPVQL; listed as Homo sapiens) [compound 57]	“+++” (≥50 = +++)
176 (YLMEGSYNKVFL; listed as Homo sapiens) [compound 176]	“++” (≥20% = ++)

Next, values leading:

Peptide exchange (MHC class I binding score, peptide exchange yield)	Substance
“++” (≥20% = ++)	318 (GLINTGVLSV; listed as Homo sapiens) [compound 318]
“++” (≥20% = ++)	491 (GLNDRSDAV; listed as Homo sapiens) [compound 491]
“++” (≥20% = ++)	459 (ALITEVVRL; listed as Homo sapiens) [compound 459]
“++” (≥20% = ++)	505 (SLAPGDVVRQV; listed as Homo sapiens) [compound 505]
“+++” (≥50 = +++)	478 (YLLHEKLNL; listed as Homo sapiens) [compound 478]
“+++” (≥50 = +++)	614 (LLLPDQPPYHL; listed as Homo sapiens) [compound 614]
“+++” (≥50 = +++)	601 (SAFPFPVTV; listed as Homo sapiens) [compound 601]
“++” (≥20% = ++)	379 (IMEGTLTRV; listed as Homo sapiens) [compound 379]
“+++” (≥50 = +++)	465 (QLCDLNAEL; listed as Homo sapiens) [compound 465]
“+++” (≥50 = +++)	442 (GLLGGGGVLGV; listed as Homo sapiens) [compound 442]
“+” (≥10% = +)	520 (LAVHPSGVAL; listed as Homo sapiens) [compound 520]
“+++” (≥50 = +++)	549 (AMLENASDIKL; listed as Homo sapiens) [compound 549]
“+++” (≥50 = +++)	336 (ILLTAIVQV; listed as Homo sapiens) [compound 336]
“++++” (≥75% = ++++)	621 (VLMDRLPSLL; listed as Homo sapiens) [compound 621]
“+++” (≥50 = +++)	537 (TLAPGEVLRSV; listed as Homo sapiens) [compound 537]
“+++” (≥50 = +++)	529 (LLADELITV; listed as Homo sapiens) [compound 529]
“+++” (≥50 = +++)	446 (QLIPALAKV; listed as Homo sapiens) [compound 446]
“++++” (≥75% = ++++)	337 (HLLSELEAAPYL; listed as Homo sapiens) [compound 337]

Peptide exchange (MHC class I binding score, peptide exchange yield)	Substance
“+++” (≥50 = +++)	350 (ALLDVTHSELTV; listed as Homo sapiens) [compound 350]
“+++” (≥50 = +++)	508 (ILAQEQLVVGV; listed as Homo sapiens) [compound 508]
“++” (≥20% = ++)	429 (GLVNDLARV; listed as Homo sapiens) [compound 429]
“+++” (≥50 = +++)	314 (ALIAEGIALV; listed as Homo sapiens) [compound 314]
“+++” (≥50 = +++)	569 (KLVDRTWTL; listed as Homo sapiens) [compound 569]
“+++” (≥50 = +++)	564 (TVTNAVVTV; listed as Homo sapiens) [compound 564]
“+++” (≥50 = +++)	577 (VMFEDGVLMRL; listed as Homo sapiens) [compound 577]
“++” (≥20% = ++)	566 (VIADGGIQNV; listed as Homo sapiens) [compound 566]
“+++” (≥50 = +++)	307 (ALPVSLPQI; listed as Homo sapiens) [compound 307]
“+++” (≥50 = +++)	474 (YLDPALELGPRNV; listed as Homo sapiens) [compound 474]
“+++” (≥50 = +++)	575 (YLISQVEGHQV; listed as Homo sapiens) [compound 575]
“+++” (≥50 = +++)	531 (YTLPIASSIRL; listed as Homo sapiens) [compound 531]
“+++” (≥50 = +++)	298 (VMITKLVEV; listed as Homo sapiens) [compound 298]
“+++” (≥50 = +++)	388 (SLTIDGIRYV; listed as Homo sapiens) [compound 388]
“++” (≥20% = ++)	494 (ALQPEPIKV; listed as Homo sapiens) [compound 494]
“+++” (≥50 = +++)	378 (ALGYFVPYV; listed as Homo sapiens) [compound 378]
“++” (≥20% = ++)	398 (KLLEEDGTIITL; listed as Homo sapiens) [compound 398]
